This is an account of results in US20220177587A1, “METHODS AND USES OF VARIANT CD80 FUSION PROTEINS AND RELATED CONSTRUCTS” (Alpine Immune Sciences, Inc., priority 2018, published 2022).

Experiment [1] relates to Pan T cells. In words: Primary T cell stimulation assay with K562/OKT3 +/- PD-L1 (IL-2, IFN-gamma, proliferation). It counts as cell-based, human. Also on record: IL-2 release, K562/OKT3 (No PD-L1), CD80-IgV Fc (effector), 1 nM / IL-2 release, K562/OKT3 (No PD-L1), CD80-IgV Fc (effector), 10 nM / IL-2 release, K562/OKT3 (No PD-L1), CD80-IgV Fc (effector), 100 nM / IL-2 release, K562/OKT3/PD-L1, CD80-IgV Fc (inert), 1 nM / IL-2 release, K562/OKT3/PD-L1, CD80-IgV Fc (inert), 10 nM / IL-2 release, K562/OKT3/PD-L1, CD80-IgV Fc (inert), 100 nM: unit not given here. Conditions: 72 hr; for IL-2 release, K562/OKT3 (No PD-L1), CD80-IgV Fc (effector), 1 nM / IL-2 release, K562/OKT3 (No PD-L1), CD80-IgV Fc (effector), 10 nM / IL-2 release, K562/OKT3 (No PD-L1), CD80-IgV Fc (effector), 100 nM: Pan T cells + K562/OKT3 (no PD-L1), effector Fc format (controls as labelled). Here is the method:
IFN-gamma, IL-2 and proliferation were determined after 72 hr. incubation.

The target of experiment [2] is T1, CD28 (Homo sapiens, UniProt P10747). In words: Jurkat/IL2 + K562/OKT3 (no PD-L1) reporter assay of CD80 ECD-Fc (effector). The arrangement: host or cells: Jurkat cells expressing an IL-2-luciferase reporter. It counts as cell-based. Conditions: aAPC without PD-L1. How it is done:
The bioactivity of the generated molecules also was assessed using a Jurkat report assay as described in Examples 9 to assess CD28 costimulation of the molecules.
A general note: A reporter such as luciferase makes a cellular process visible.

In experiment [3] the target is huCTLA4 (Homo sapiens, UniProt P16410). The experiment in a line: Flow binding to CHO cells stably expressing CTLA4. The arrangement: huCTLA4 and huPD-L1, full-length mammalian surface expression constructs were generated; expressed in transfected cells; host or cells: CHO cells, lentiviral transduction, sorted to >98% purity. Here is the method:
(§1) Binding of selected immunomodulatory fusion proteins to cognate binding partners was assessed. […] Cells were sorted in a Bio-Rad S3 Cell Sorter (Bio-Rad Corp., USA) to >98% purity. Jurkat/IL2 reporter cells, which endogenously express CD28, were used to detect binding to CD28.
(§2) For staining and analysis by flow cytometry, 100,000 cells of appropriate transfected cells were plated in 96-well round bottom plates. Cells were spun down and resuspended in staining buffer (phosphate buffered saline (PBS), 1% bovine serum albumin (BSA), and 0.1% sodium azide) for 20 minutes to block non-specific binding. […] Primary staining was performed on ice for 45 minutes, before washing cells in staining buffer twice. Phycoerythrin (PE)-conjugated anti-human Fc (Jackson ImmunoResearch, USA) was diluted 1:150, added to cells and incubated another 30 minutes on ice. Cells were then washed twice with 150 μL/well stain buffer, fixed in 2% formaldehyde/PBS, and analyzed on Intellicyt flow cytometer (Intellicyt Corp., USA). PE Mean Fluorescence Intensity (MFI) was calculated for each cell type with FlowJo Version 10 software (FlowJo LLC, USA).
(§3) Binding assays were carried out to assess the specificity and affinity of multivalent proteins to cell-expressed CTLA-4, CD28, and PD-L1 counter structures.
(§4) The EC50 for binding also was determined.

Experiment [4] has as its target huPD-L1 (Homo sapiens, UniProt Q9NZQ7). In words: Flow binding to CHO cells stably expressing PD-L1. The arrangement: huCTLA4 and huPD-L1, full-length mammalian surface expression constructs were generated; expressed in transfected cells; host or cells: CHO cells, lentiviral transduction, sorted to >98% purity. Here is the method: as §1, §2, §3, §4
Experiment [5] addresses T1, CD28. In words: Flow binding to Jurkat/IL2 reporter cells (CD28). Also on record: host or cells: Jurkat cells expressing an IL-2-luciferase reporter. Here is the method: as §1, §2, §3, §4
The target in experiment [6] is T1, CD28. In words: Jurkat/IL2 + CHO/OKT3 +/- PD-L1 reporter assay: PD-L1-dependent CD28 costimulation. Also on record: host or cells: Jurkat cells expressing an IL-2-luciferase reporter. The note with it: Table E22, Jurkat/IL2 + CHO/OKT3/PD-L1. It counts as cell-based. How it is done: Jurkat cells were then plated at 50 μL/well for a total of 100,000 cells per well.
To each well, 25 μL of test protein was added to the Jurkat cells. […] The Jurkat cells with test or control proteins were incubated for 15 minutes at room temperature. CHO-derived artificial antigen presenting cells (aAPC) displaying transduced cell surface anti-CD3 single chain Fv (OKT3) (i.e., no PD-L1), or OKT3 and PD-L1 (i.e., +PD-L1), were brought to 0.8×10^6 cells/mL, and 25 μL of cells were added to each well, bringing the final volume of each well to 100 μL. […] Jurkat cells and CHO cells were incubated for 5 hours at 37 degrees Celsius in a humidified 5% CO2 incubation chamber. Plates were then removed from the incubator and acclimated to room temperature for 15 minutes. 100 μL of a cell lysis and luciferase substrate solution (BioGlo luciferase reagent, Promega) were added to each well and the plates were incubated on an orbital shaker for 10 minutes. Luminescence was measured with a 1 second per well integration time using a BioTek Cytation luminometer, and a relative luminescence value (RLU) was determined for each test sample.

The mark [7] stands for this setting: Table E20, MFI at 33.3 nM relative to CD80 WT IgV-Fc.

pEC50: −log10 of the molar value.

Chain of huPD-L1 (Q9NZQ7 19-290): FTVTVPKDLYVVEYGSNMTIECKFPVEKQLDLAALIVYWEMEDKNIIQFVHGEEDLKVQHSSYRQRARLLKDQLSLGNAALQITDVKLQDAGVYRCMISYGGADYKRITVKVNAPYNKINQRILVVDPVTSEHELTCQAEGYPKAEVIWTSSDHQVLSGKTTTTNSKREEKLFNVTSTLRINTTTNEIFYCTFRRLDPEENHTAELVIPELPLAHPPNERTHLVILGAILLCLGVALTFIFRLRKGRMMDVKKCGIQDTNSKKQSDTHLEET
Chain of huCTLA4 (P16410 36-223): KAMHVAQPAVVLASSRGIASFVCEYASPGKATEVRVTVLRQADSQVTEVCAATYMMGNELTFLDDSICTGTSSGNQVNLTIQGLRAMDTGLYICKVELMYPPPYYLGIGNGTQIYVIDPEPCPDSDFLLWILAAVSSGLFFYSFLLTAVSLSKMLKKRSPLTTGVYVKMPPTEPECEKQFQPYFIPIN

Turning to WT CD80 ECD-Fc (effector), in experiment [1] (1 nM), the “IL-2 release, K562/OKT3 (No PD-L1), CD80-IgV Fc (effector), 1 nM” value worked out at 11434. The “IL-2 release, K562/OKT3 (No PD-L1), CD80-IgV Fc (effector), 10 nM” value in experiment [1] (10 nM) is 20185. In experiment [1] (100 nM), the “IL-2 release, K562/OKT3 (No PD-L1), CD80-IgV Fc (effector), 100 nM” value came out at 23118. In addition, the “IL-2 release, K562/OKT3/PD-L1, CD80-IgV Fc (inert), 1 nM” value in experiment [1] (Pan T cells + K562/OKT3/PD-L1, inert Fc format (controls as labelled), 1 nM) was 507. In addition, the “IL-2 release, K562/OKT3/PD-L1, CD80-IgV Fc (inert), 10 nM” value in experiment [1] (Pan T cells + K562/OKT3/PD-L1, inert Fc format (controls as labelled), 10 nM) turned out to be 3114. Further, the “IL-2 release, K562/OKT3/PD-L1, CD80-IgV Fc (inert), 100 nM” value in experiment [1] (Pan T cells + K562/OKT3/PD-L1, inert Fc format (controls as labelled), 100 nM) was found to be 8393.
For WT CD80 IgV-Fc (effector), the “IL-2 release, K562/OKT3 (No PD-L1), CD80-IgV Fc (effector), 1 nM” value in experiment [1] (1 nM) was 7167. The “IL-2 release, K562/OKT3 (No PD-L1), CD80-IgV Fc (effector), 10 nM” value in experiment [1] (10 nM) is recorded as 7123. For the same substance, the “IL-2 release, K562/OKT3 (No PD-L1), CD80-IgV Fc (effector), 100 nM” value in experiment [1] (100 nM) is given as 6203.
For the substance “CD80 (E35D/D46E/M47V/V68M/D90G/K93E) ECD-Fc: variant full CD80 ECD fused to effector human IgG1 Fc (SEQ ID NO:1527)”, in experiment [2], the “Relative Luminescence at 98 pM” value is 949 RLU, the “Relative Luminescence at 391 pM” value is listed as 939 RLU, the “Relative Luminescence at 1563 pM” value was determined as 1022 RLU and the “Relative Luminescence at 6250 pM” value is given as 1213 RLU. Also, in experiment [2], the “Relative Luminescence at 25000 pM” value stood at 1558 RLU and the “Relative Luminescence at 100000 pM” value is 2046 RLU. For the same substance, the “CHO/CTLA4 MFI at 66.7 nM” value in experiment [3] (66.7 nM) is listed as 24566. This substance had a pEC50 in experiment [3] (flow binding) of 7.98. Also, the “CHO/PD-L1 MFI at 66.7 nM” value in experiment [4] turned out to be 287.
In the case of “CD80 (S21P/L70Q/D90G/I118V/T120S/T130A) ECD-Fc: variant full CD80 ECD fused to effector human IgG1 Fc (SEQ ID NO:1527)”, the “Jurkat/CD28 MFI at 66.7 nM” value in experiment [5] (66.7 nM) was 282. For the same substance, the pEC50 in experiment [5] (flow binding, read-out: Jurkat/CD28 EC50) was below 6.70. Besides, in experiment [2], the “Relative Luminescence at 98 pM” value was found to be 1042 RLU, the “Relative Luminescence at 391 pM” value came out at 993 RLU, the “Relative Luminescence at 1563 pM” value is 1049 RLU and the “Relative Luminescence at 6250 pM” value stood at 1203 RLU. Besides, in experiment [2], the “Relative Luminescence at 25000 pM” value is 1730 RLU and the “Relative Luminescence at 100000 pM” value amounted to 2197 RLU. In addition, the “CHO/PD-L1 MFI at 66.7 nM” value in experiment [4] is listed as 103.
As to H18Y/A26E/E35D/V68M/A71G, the “CD28 MFI at 33.3 nM” value in experiment [5] (Table E20, Jurkats (CD28), 33.3 nM) was 394. Moreover, the “CD28 Fold change to WT CD80” value in experiment [5] (setting [7]) is listed as 9.0 fold. In experiment [6] (5.0 nM), the “Fold Increase over WT CD80-IgV-Fe” value was determined as 2.46 fold. Also, the “Relative Luciferase Units (RLU), CD80 Conc 5.0 nM” value in experiment [6] (CD80 Conc 5.0 nM) is given as 961 RLU. Moreover, the “CTLA4 MFI at 33.3 nM” value in experiment [3] (Table E20, CHO cells stably expressing CTLA4, 33.3 nM) is listed as 19394. Moreover, the “CTLA4 Fold change to WT CD80” value in experiment [3] (setting [7]) came out at 14.3 fold. In addition, the “PD-L1 MFI at 33.3 nM” value in experiment [4] (Table E20, CHO cells stably expressing PD-L1, 33.3 nM) is 27476. Besides, in experiment [4] (setting [7]), the “PD-L1 Fold change to WT CD80” value worked out at 630.2 fold. Also, the “Ratio of PDL1:CD28” value in experiment [4] (Table E20, ratio of MFI at 33.3 nM) came to 69.7.
